Numbering of substitutions follows the chain as printed.
What was measured:
Conditions in all cases: protein: recombinant; tags: N-terminal His6 (TEV-cleavable); stem-loop with internal bulge
HsLARP6(70-300) R245A = molecular target: T1, HsLARP6(70-300) R245A (Homo sapiens, UniProt Q9BRS8 70-300, R245A); assay: ITC; ITC: 20 mM Tris pH 7.25, 100 mM KCl, 5 mM MgCl2, 1 mM DTT, 298 K; protein titrated into RNA
T1 sequence: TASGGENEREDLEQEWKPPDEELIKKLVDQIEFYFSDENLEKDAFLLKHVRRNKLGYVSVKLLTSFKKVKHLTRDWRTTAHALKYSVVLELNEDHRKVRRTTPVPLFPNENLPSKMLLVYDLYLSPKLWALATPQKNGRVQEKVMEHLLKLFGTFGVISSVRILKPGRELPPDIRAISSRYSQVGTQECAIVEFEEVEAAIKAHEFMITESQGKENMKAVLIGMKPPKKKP

HsLARP6(70-300) K86A = molecular target: T2, HsLARP6(70-300) K86A (Homo sapiens, UniProt Q9BRS8 70-300, K86A); assay: as above
T2 sequence: T1 sequence with K17A, A176R

[1] = molecular target: T3, HsLARP6(70-300) R244E/R245E/R249E (Homo sapiens, UniProt Q9BRS8 70-300, R244E;R245E;R249E); assay: as above
T3 sequence: T1 sequence with R175E, A176E, R180E

HsLARP6(70-300) D112A = molecular target: T4, HsLARP6(70-300) D112A (Homo sapiens, UniProt Q9BRS8 70-300, D112A); assay: as above
T4 sequence: T1 sequence with D43A, A176R

HsLARP6(70-300) W85A = molecular target: T5, HsLARP6(70-300) W85A (Homo sapiens, UniProt Q9BRS8 70-300, W85A); assay: as above
T5 sequence: T1 sequence with W16A, A176R

HsLARP6(70-300) F114A = molecular target: T6, HsLARP6(70-300) F114A (Homo sapiens, UniProt Q9BRS8 70-300, F114A); assay: as above
T6 sequence: T1 sequence with F45A, A176R

Loop1 chimera = molecular target: T7, Loop1 chimera (Homo sapiens, UniProt Q9BRS8 70-189+P05455:116-122+209-300, internal_change); assay: as above
T7 sequence: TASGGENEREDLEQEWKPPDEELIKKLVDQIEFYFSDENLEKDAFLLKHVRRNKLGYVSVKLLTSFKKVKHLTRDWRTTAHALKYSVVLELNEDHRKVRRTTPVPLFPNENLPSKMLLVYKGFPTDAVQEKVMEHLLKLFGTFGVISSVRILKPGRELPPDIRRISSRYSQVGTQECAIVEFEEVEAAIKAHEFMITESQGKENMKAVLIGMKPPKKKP

Interlinker chimera = molecular target: T8, Interlinker chimera (Homo sapiens, UniProt Q9BRS8 70-178+P05455:101-111+181-300, internal_change); assay: ITC; text says 500-fold decrease; table gives about 14-fold; ITC: 20 mM Tris pH 7.25, 100 mM KCl, 5 mM MgCl2, 1 mM DTT, 298 K; protein titrated into RNA
T8 sequence: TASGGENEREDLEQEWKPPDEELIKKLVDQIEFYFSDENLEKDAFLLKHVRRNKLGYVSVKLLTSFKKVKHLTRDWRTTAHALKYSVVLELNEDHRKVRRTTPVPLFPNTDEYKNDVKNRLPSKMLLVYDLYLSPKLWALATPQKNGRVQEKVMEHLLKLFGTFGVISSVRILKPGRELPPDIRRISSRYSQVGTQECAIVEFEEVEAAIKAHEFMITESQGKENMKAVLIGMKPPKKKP

CCACAAAGAGUCUACAUGUCUAGGGUCUAGACAUGUUCAGCUUUGUGG (structured_RNA) [48 nt RNA (collagen alpha1(I) 5' UTR SL)] gave a Kd (HsLARP6(70-300) R245A) of 36 nM, a Kd (HsLARP6(70-300) K86A) of 77 nM and a Kd [1] of 27 nM. The Kd (HsLARP6(70-300) D112A) was 172 nM, the Kd (HsLARP6(70-300) W85A) was 22 nM and the binding result (HsLARP6(70-300) F114A) was “no binding”. The Kd (Loop1 chimera) was 18 nM and the Kd (Interlinker chimera) was 667 nM.
